Results taken from the nanobody polyreactivity screen of Harvey et al. (2022).

Assay: yeast display, Sf9 membrane polyspecificity reagent, FACS + sequencing; frameworks hold sequencing errors
How it was run: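 A nanobody's polyreactivity label depends on the gate it was sorted from. Yeast display cells were stained with 10% biotinylated, detergent-solubilized Sf9 membrane reagent for 1 hour at 4 °C, enriched on streptavidin microbeads and sorted by FACS. The low and high (top ~1%) gates were set on anti-HA fluorescence for expression and streptavidin fluorescence for reagent binding.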

Sequence | polyreactivity (PSR sort gate)
QVQLVESGGGLVQAGGSLRLSCAASGLTFEYYTMGWYRQAPGIERELVAAITSSGGSTYYADSVKGRFTISRDNAKNTVYLQMISLKPEDTAVYYCNAYWTYEFPSYEYWGQGTQVTVSS | low polyreactivity
QVQLVESGGGLVQAGGSLRLSCAASGITFGNYAMYWVRQAPGKERELVAAINYSRGSTYYADSVKGRFTISRDNAKNTVYLQMNSLKPQDTAVYYCAADTYPASYDYWGQGTQVTVSS | high polyreactivity
QVQLVESGGGLVQAGGSLRLSCAASGFTFGYNAMGWYRQAPGKERELVAAITSGGSTNYADSVKGRFTISRDNAKNTVYLQMNSLKPEDTAVYYCATGVRPWRKKPVEFYHRGQGTQVTVSS | low polyreactivity
QVQLVESGGGLVQAGRSLRLSCAASGIIFAFYAMGWYRQAPGKERELVAAISIDGSTYYADSVKGRFTISRDNAKNTVYLQMNSLKPEDTAVYYCAAQYLNVYYWEDYWGQGTQVTVSS | low polyreactivity
QVQLVESGGGLVQAGGSLRLSCAASGSTFGSYVMGWYRQAPGKERELVAAIRWSGTSTYYADSVKGRFTISRDNAKNTVYLQLNSLKPEDTAVYYCNATPNYNRGDHTPMDYWGQGTQVTVSS | low polyreactivity
QVQLVESGGGLVQAGGSLRLSCAASGFTFWEYAMGWYRQAPGKERELVAAIRDRGVNTYYADSVKGRFTISRDNAKNTVYLQMNSLKPVDTAVYYCAKSTRRGGVALGEYDYWGQGSQVTVSS | low polyreactivity
QVQLVESGGGLVQAGGSLRLSCAASGSIGTYVMGWYRQAPGKERELVAAISLSGGSTYYADSVKGRFTISRDNAKNTVYLQMNSLKPEDTAVYYCNAVKATRNTGSDYWGQGTQVTVSS | low polyreactivity
QVQLVESGGGLVQAGGSLRLSCAASGLTFWDYAMGWYRQAPGKETELVAAISNDDSTYADSVKGRFTISRDNAKNTVYLQMNSLKPEDTAVYYCAAQSYYTWPEMGYWGQGTQVTVSS | low polyreactivity
QVQLEESGGGLVQEGGSLRLSCAASGSIFTQNARGWNRQAPGKERELVAAITISGGGTYYADSVKGRFTISRDNAKNTVYFQMNSQKPEDTAVYHCAAAGRARYYYRYGYWGQVTQVTVSS | low polyreactivity
QVQLVESGGGLVQAGGSLRLSCAPSGRTFWAYAMGWYRQAPGKERELVAAITTSGGSTNYADSVKGRFTISRDNAKNTVYLQMNSLKPEDTAVYYCNADPTYHVVNGVGYWGQGTQVTESS | low polyreactivity
QVQLVESGGGLVQAGGSLRLSCAASGRIFGRNAMGWYRQAPGKERELVASITWTGGSTYYADSVKGRFTISRDNAKNTVYLQMNSLKPEDTAVYYCAAETWYGSSWWDAGEYYYWGQGTQVTVSS | high polyreactivity
QVQLVESGGGIVQAGGSLRLSCAASGSIVRGYAMGWYRQAPGKERELVAAITFSGGSTYADSVKGRFTISRDNAKNTVYLQMNSLKPEDTAVYYCAAKRTGHNWFTVYPYYSWGQGTQVTVSS | low polyreactivity
QVQLVESGGGLVQAGGSLRLSCAASGRIFRYYAKGWYRQAPGKERELVARIRWSGGSTYYADSVKGRFTISRDNAKNTVYLQMNSLKPEDTAVYYCNAGSWSYRYNYWGQGTQVTVSS | high polyreactivity
HLQLVESGGGLVQAGGSLRLSCAASGSIFYYNAMGWYRQAPGKERELVASIRANGGNTYYADSVKGRFTISRDNAKNTVYLQMNSLKPEETAVYYCAKESRYAHLYYYWGQGTQVTVSS | low polyreactivity
QVQLVESGGGLVQAGGSLRLSCAASGRIFASYAMGWYRQAPGKERELVAAISAGGGSRTYYADSVKGRFTISRDNAKNTVYLQMNSLKPEDTAVYYCNTANSWLRQYYYWGQGTQVTVSS | high polyreactivity
QVQLVESGGGLVQAGGSLRLSCAASGSTIEPNAMGWYRPAPGKERELVAAINYSGGRTYYADSVKGRFTISRDNAKNTVYLQMNSLKPEDTAVYYCAATSIGRYKSRLDYWGQGTQVTVSS | high polyreactivity
QVQLVESGGGLVQAGGSLRLSCAAAGLTFQPYVLGWYRQAPGKERELVAAISVRTTRTYYADSVKGRFTISRDNAKNTVYLQMNSLKPEDTAVYYCNVSGVLYPFVSYDYWGQGTHVTVSS | low polyreactivity
QVLLVESGGGLVQAGGSLRLSCAASGSTIRYYAMGWYRQAPGKERELVAAISWRGGSTYYADSVKGRFTISRDNAKYTVYLQMNSLKPEDTAVYYCAVEAVAYGFFHYDYWGQGTQVTVSS | high polyreactivity
QVQLVESGGGLVQAGGSLRLSCAASGRTFYINAMGWYRQAPGKERELVAGITRGGSTNYADSVKGRFTISRDNAKNTVYLQMNSLKPEDTAVYYCNAARAERWGRGSYPEFDYWGQGTQVTVSS | high polyreactivity
QVQLVESGGGLVQAGGSLRLSCAASGSIFWANAMGWYRQAPGKERELVASISSGGSTNYADSVKGRFTISRDNAKNTVYLQMNSLKPEDTAVYYCAADYSHSYIGYDYWGQGTQVTVSS | low polyreactivity
QVQLVESGGGLVQAGGSLRLSCAASGRIFRSNARGWYRPAPGKERELVAAISSNGGSTYYADSVKGRFTISRDNAKNTVYLQMNSLKPEDTAVYYCAARVYYPVRYGYWGQGTQVTVSS | high polyreactivity
QVQLVESGGGLVQAGGSLRLSCAASGRTLRLYAMGWYRQAPGKERELVAAISSRGRTYYADSVKGRFTISRDNAKNTVYLQMNSLKPEDTAVYYCAVVVYQGFRSKYYYWGQGTQVTVSS | high polyreactivity

Sequence | polyreactivity (PSR sort gate)
QVQLVESGGGLVQAGGSLRLSCAASGNTFGAYTMGWYRQAPGKEREFVAAISYSGGITFYADSVKGRFTISRDNAKNTVYLQMNSLKPEDTAVYYCAARTYRYGYWYDYWGQGTQVTVSS | high polyreactivity
QVQLVESGGGLVQAGGSLRLSCAASGSIFSLYAMGWYRQAPGKERELVTAITSGGRTKYADSVKGRFTISRDNAKNTVYLQMNSLKPEDTAVYYCAARDDSEKRYLTQYAYNYWGQGTQVTVSS | low polyreactivity
QVQLVESAGGLVQAGGTLSLSCAASGSTFYNYAMGWYRQAPGTETELVAAISSGGSTNYADSVKGRFTISRDNAKNTVYLQMNSLKPEDTAVYYCARRHRVYPSRIGHDYWGQGTQVTVSS | low polyreactivity
QVQLVESGGGLVQAGGSLRLSCAASGFTIKYNTMGWYRQAPGKERELVAAITSNTGSTYYADSVKGRFTISRDNAKNTVYLQMNSLKPEDTAVYYCAVTSYYRRYGYWGQGTQVTVSS | high polyreactivity
QLQLVESGGGLVQAGGSLRLSCAASGRTFAIYAMGWYRQAPGKERELVAAIRKRGSITYYADSVKGRFTISRDNAKNTVYLQMNSLKPDATAVYYCAVDYWGQGTQVTVSS | high polyreactivity
QVQLVESGGGLVQAGGSLRLTCAASGSITSINAMGWYRQAPGKERELVAAINWSSGSTYYADSVKGRFTISRDYAKNTVYLQKISLKPEDTAVYYCAVDRYFFAGYYGYEYWGQGTQGTVSS | high polyreactivity
QVQLVESGGGLVQAGGSLRLSCAASGSIFYGYAMGWYRQAPGKERELVATITSGDSTNYADSVKGRFTISRDNAKNTVYLQMNSLKPEDTAVYYCAADPAHYVFWYGRYGYDYWGQGTQVTVSS | low polyreactivity
QVQLVESGGGLVQAGGSLRLSCAASGSTFGVNTMGWYRQAPGKERELVAAITSRGGSTYYADSVKGRFTISRDNAKNTVYLQMNSLKPEDTAVYYCAAEASYYRIRRYYWGQGTQVTVSS | high polyreactivity
QVQLVESGGGLVQAGGSLRLSCAASGFTFDSNAMGWYRQAPGKERELGAAISKRGGSTYYADSVKGRFTISRDNAKNTVYLQMNSLKPEDTAVYYCAADNYNSGGTRHMYYWGQGTQVTVSS | high polyreactivity
QVQLVESGGGLVQAGGSLRLSCAASRSTFRDNAMGWYRQAPGKVRELVAGITRGGITNYADSVKGRYTISRDNAKNTVYLQMNSLKPEDTEVYYFAAEVTGTYYDYDYWGQGTQVTVSS | low polyreactivity
QFQLVDSVRGLVQAGVSLRLSCAASGRIFVKYVIGSYRQAPGTESQLVAANRSYGGSPYYADSVKGRFTISRDNAKNTVYLQMNSLKPEDTAVYYCAKRLHYSAPRYTEYDEWGHGTQVTVSS | high polyreactivity
QVQLVESGGGLVQAGGSLRLSCAASGLNFSHYTMGWYRQAPGKERELVAAITSSGGSTYYADSVKGRFTISRDNGKNTVYLQMNSLKPVDTAVYYCNKALTSKDYPVRTVERDYWGQGTQVTVSS | low polyreactivity
QVQLVESGGGLVQAGGSLRLSCAASGGTLYRYAMGWYRQAPGKERELVAGISSSGGRTYYADSVKGRFTISRDNAKNTVYLQMNSLKPEDTAVYYCAKYWVSSYDYWGQGNQVTVSS | high polyreactivity
QVQLVESGGGLVQAGGSLRLSCAASGSIFSYYPMGWYRPAPGKERELVAAISWSGGSTYYADSVKGRFTISRDNAKNTVYLQMNSLKPEDTAVYYCAAQSWSGDSSFWRYDYWGQGTQVTVSS | low polyreactivity
QVQLVESGGGLVQAGGSLRFTCAASGRIFRTNAMGWYRQAHGKEREFVAAISKDGGRTYYADSVKGRFTISRDNAKNTVYLQMNSLKPEDTAVFYCNVLVKHSTTTYSTYDYWGQGSQVTVSS | high polyreactivity
QVQHVESGLGLDQAAGSLRLSSAASGFIFWYSSMGWYREARGKERELVAAITGGAITYYADSVKGRFTITRDNAKNTVYLPMNSLIPEDTAVYYGADELTLGRFRYDYWGQGTQVTVSA | high polyreactivity
PLQLVESGGGLVQAGGSLRLSCAASGTIFVQTDRGWYRQAPGKERELVAAISSGSSTNYADSVNGRFTISRDNAKNTVYLQMNSLKPEDSAAYYCAVTSPYSQGYSYWGADSRDYWGQGTQVTVSS | low polyreactivity
QVQLVESRGGLVQAGGSLRLSCAASGFTFPFYAMGSYRQAPGKERELVAAISISGGSTHYADSVKGRFTISRDNAKNTVYLQMNSLKPEDTAVYYCAAEYGVVIYIDGWYPTLHEYYYSGQGTQVTVSS | high polyreactivity
QVQLVESGGGLVQAGGSLRLSCAASGSTFHYYAMGWYRQAPGKERELVAAINSGARTYYADSVKGRFTISRDNAKNTVYLQMNSLKPEDTAVYYCAKDYTYSFGRSLDYWGQGTQVTVSS | low polyreactivity
QEQLQESGGGLVLAGGSLSLSCPESGYISWSFTMGWYRKAPGKEREFVAGITYGGITYYADSVKGRFTIRRDNGKNTVYLQLNSLKPEDTAVFYCAAPQTYPYVYVYWGQGTQVTVCS | high polyreactivity
QVQLVESGGGLVQAGGSLRLSCAASGSIFSYNAMGWYRQAPGKERELVAAITWSGGSTYYADSVKGRFTISRDNAKNTVYLQMNSLKPEDTAVYDCAAKGGYSTVRPTYTKFNYWGLGTQVTVSS | high polyreactivity
